Measured values published in publication PMC10630410, “Functional dissection of PRC1 subunits RYBP and YAF2 during neural differentiation of embryonic stem cells” (Nature Communications, 2023).

Target: T1, GST-RING1B (mouse, UniProt Q9CQJ4 1-336)
T1 construct: RING1B (Ring1b), the coding region amplified from mouse cDNA, in pGEX-4T; also called pGEX-4T-mRing1b; source: E. coli BL21 (DE3), purified (glutathione agarose); not shown: GST, N-terminal, kept
T1 sequence (looked up): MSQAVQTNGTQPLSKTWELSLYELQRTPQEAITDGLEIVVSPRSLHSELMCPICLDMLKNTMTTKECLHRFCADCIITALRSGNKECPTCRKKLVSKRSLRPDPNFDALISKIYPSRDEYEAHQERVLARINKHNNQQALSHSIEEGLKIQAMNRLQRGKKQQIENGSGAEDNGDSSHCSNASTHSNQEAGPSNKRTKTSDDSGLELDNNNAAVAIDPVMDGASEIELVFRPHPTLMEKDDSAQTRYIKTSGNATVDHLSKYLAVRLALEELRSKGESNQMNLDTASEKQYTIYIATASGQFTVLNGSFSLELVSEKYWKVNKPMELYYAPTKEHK
Experiment: pull-down; same mixture as a3: purified His-mYAF2-mCherry (0, 100, 300 ng) with 300 ng purified GST-RING1B in the presence of mESC extract, PBS, 4 °C; read out as loss of RYBP from GST-RING1B
Settings: both partners purified

binding result: binds
B1: His-mYAF2-mCherry (natural protein, mouse, UniProt Q99LW6 1-179, looked up)
chain: MGDKKSPTRPKRQPKPASDEGYWDCSVCTFRNSAEAFKCMMCDVRKGTSTRKPRPVSQLVAQQVTQQFVPPTQSKKEKKDRVEKDKSEKEAASKKNCHKKTRPRLKNVDRSSAQHLEVTVGDLTVIITDFKEKAKSAPASSAAGDQHSQGSCSSDSTERGVSRSSSPRGEASSLNGESH
notes: YAF2 (Yaf2), the coding region amplified from mouse cDNA, in pET-28a; also called His-YAF2; pET-28a-mYaf2-mCherry; source: E. coli BL21 (DE3), purified (Ni-NTA); not shown: His6, N-terminal, kept
